Assay results: patent US20240424060A1 (DOMPE FARMACEUTICI, published 2024)

B1: TrKA receptor immobilized on the SPR sensor surface (receptor)
chain: AAPCPDACCPHGSSGLRCTRDGALDSLHHLPGAENLTELYIENQQHLQHLELRDLRGLGELRNLTIVKSGLRFVAPDAFHFTPRLSRLNLSFNALESLSWKTVQGLSLQELVLSGNPLHCSCALRWLQRWEEEGLGGVPEQKLQCHGQGPLAHMPNASCGVPTLKVQVPNASVDVGDDVLLRCQVEGRGLEQAGWILTELEQSATVMKSGGLPSLGLTLANVTSDLNRKNVTCWAENDVGRAEVSVQVNVSFPASVQLHTAVEMHHWCIPFSVDGQPAPSLRWLFNGSVLNETSFIFTEFLEPAANETVRHGCLRLNQPTHVNNGNYTLLAANPFGQASASIMAAFMDNPFEFNPEDPIPVSFSPVDTNSTSGDPVEKKDETPFGVSVAVG
B2: p75^NTR receptor immobilized on the SPR sensor surface (receptor)
chain: KEACPTGLYTHSGECCKACNLGEGVAQPCGANQTVCEPCLDSVTFSDVVSATEPCKPCTECVGLQSMSAPCVEADDAVCRCAYGYYQDETTGRCEACRVCEAGSGLVFSCQDKQNTVCEECPDGTYSDEANHVDPCLPCTVCEDTERQLRECTRWADAECEEIPGRWITRSTPPEGSDSTAPSTQEPEAPPEQDLIASTVAGVVTTVMGSSQPVVTRGTTDN

Assays:
[1] = molecular target: TrKA receptor immobilized on the SPR sensor surface; test: SPR, receptor immobilized, steady-state 1:1 fit (KDeq)
[2] = molecular target: p75^NTR receptor immobilized on the SPR sensor surface; test: as above
[3] = molecular target: T1, rhNGF-1: recombinant human NGF from R&D Systems Inc (product code: 256-GF/CF), manufactured in a mouse … (human, UniProt P01138 122-241; P01138 122-240; P01138 122-239; P01138 122-238); test: SPR, receptor immobilized, kinetic fit (BIA evaluation)
T1 construct: A commercial MIXTURE of isoforms, not a complex of four chains: the four entries are alternative forms

[4] = molecular target: T2, Recombinant human NGF (rhNGF) having an aminoacid sequence of 118 aminoacids (rhNGF-118) (human, UniProt P01138 122-239); test: as above
T2 construct: Made in E. coli from proNGF mutant SP174-101

[5] = molecular target: T1, rhNGF-1: recombinant human NGF from R&D …; test: SPR, receptor immobilized, kinetic Kd (Koff/Kon)
[6] = molecular target: T2, Recombinant human NGF (rhNGF) having an …; test: SPR, receptor immobilized, kinetic Kd (Koff/Kon)
[7] = molecular target: T1, rhNGF-1: recombinant human NGF from R&D …; test: SPR, receptor immobilized, steady-state 1:1 fit (KDeq)
[8] = molecular target: T2, Recombinant human NGF (rhNGF) having an …; test: as above

T1 sequence (P01138 122-241 limits assumed, chain 1 of 4): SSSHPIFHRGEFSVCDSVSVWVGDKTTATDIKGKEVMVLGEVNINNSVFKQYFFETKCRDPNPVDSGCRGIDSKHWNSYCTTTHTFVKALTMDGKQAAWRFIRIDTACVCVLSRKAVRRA
T1 sequence (P01138 122-240 limits assumed, chain 2 of 4): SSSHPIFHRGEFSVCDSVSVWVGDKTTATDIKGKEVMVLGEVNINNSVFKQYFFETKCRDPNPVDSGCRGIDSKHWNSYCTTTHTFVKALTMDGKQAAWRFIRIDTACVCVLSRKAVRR
T1 sequence (P01138 122-239 limits assumed, chain 3 of 4): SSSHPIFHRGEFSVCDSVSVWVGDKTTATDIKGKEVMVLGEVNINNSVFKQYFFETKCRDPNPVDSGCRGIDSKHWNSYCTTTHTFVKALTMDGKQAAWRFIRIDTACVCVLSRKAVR
T1 sequence (P01138 122-238 limits assumed, chain 4 of 4): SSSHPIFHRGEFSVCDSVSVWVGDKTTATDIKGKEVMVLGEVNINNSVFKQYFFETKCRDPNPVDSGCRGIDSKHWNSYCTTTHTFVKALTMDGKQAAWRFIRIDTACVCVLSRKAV
T2 sequence (P01138 122-239 limits assumed): as the sequence (P01138 122-239 limits assumed, chain 3 of 4) above

Molecule	Kd [1]	Kd [2]	koff [3]	kon [3]	koff [4]	kon [4]	Kd [5]	Kd [6]	Kd [7]	Kd [8]
rhNGF3: recombinant human NGF from Sino Biological (product code: 11050-HNAC), manufactured in CHO cells (from UniProt P01138 122-238) (ligand)	6 nM	39.1 nM								
rhNGF2: recombinant human NGF from Active Bioscience (product code 1745.955), manufactured in CHO cells (from UniProt P01138 122-238) (ligand)	3.85 nM	15.7 nM								
B1			0.00061 s⁻¹	8.3e+06 M⁻¹ s⁻¹	0.00075 s⁻¹	1.67e+06 M⁻¹ s⁻¹	0.0792 nM	0.38 nM	3.65 nM	4.33 nM
B2			0.0111 s⁻¹	8.3e+06 M⁻¹ s⁻¹			1.33 nM	2.6 nM	5.06 nM	7.1 nM
